B1: human PTH (1-84) (protein, UniProt P01270 32-115, looked up)
Parathyroid hormone: SVSEIQLMHNLGKHLNSMERVEWLRKKLQDVHNFVALGAPLAPRDAGSQRPRKKEDNVLVESHEKSLGEADKADVNVLTKAKSQ
modifications: Parathyroid hormone
notes: human parathyroid hormone consisting of 84 amino acid residues

How the values were obtained:
[1] = test system: ovariectomized (OVX) female SD rats; test: Bone density by DXA in ovariectomized (OVX) rats after hormone administration (Example 1); assay type: in vivo, rat; details: for bone density of the ramal portion / bone density of the femur / bone density of the lumbar vertebrae: four times a week for 10 weeks; for bone density of the ramal portion: FIG. 2; for bone density of the femur / bone density of the lumbar vertebrae: DXA
Protocol: Forty female SD rats were used. At the age of 20 weeks after birth, 35 of the animals were subjected to OVX (ovariectomy) and the remaining five were subjected to Sham operation. Starting at the age of 30 weeks when bone resorption progressed fully, animals of the OVX group were subcutaneously administered with hormones for 10 weeks on a four-times-a-week basis. Five of the group administered with human PTH (1-84) were administered a dose of 10 μg/kg body weight, another five a dose of 40 μg/kg body weight and the last five a dose of 150 μg/kg body weight. The group administered with 17β-estradiol as estrogen consisted of 5 rats, which were administered a dose of […] body weight. Ten rats were administered with both hormones, 17β-estradiol at a dose of 10 μg/kg body weight and human PTH (1-84) at different doses of 10 μg/kg body weight (in 5 rats) and 150 μg/kg body weight (in the other five). After the hormone administration and at the age of 40 weeks after birth, the mandibular bone, femur and lumbar vertebrae were extracted and measured for bone density and bone mineral content by DXA (Aloca). Measurement on the mandibular bone was conduced at two sites, the alveolar bone portion including the posterior teeth and the ramal portion.

[2] = test system: ovariectomized female SD rats with tooth removal; test: Bone density and bone mineral content by DXA in OVX rats with upper jaw posterior teeth extracted (Example 2); assay type: in vivo, rat; details: 150 μg/kg body weight s.c., four times a week for 10 weeks
Excerpt: Twenty-three female SD rats (body weight; 230-250 g) were used. At the age of 20 weeks after birth, 15 of the animals were subjected to OVX (ovariectomy) and the remaining eight were subjected to Sham operation. Then, at the age of 22 weeks after birth, ten of the ovariectomized rats and four in the Sham operation group had the posterior teeth in the upper jaw extracted. Starting at the age of 30 weeks when bone resorption progressed fully, five of the ovariectomized rats that had the posterior teeth in the upper jaw extracted were subcutaneously administered with human PTH (1-84) at a dose of 150 μg/kg body weight for 10 weeks on a four-time-a-week basis. After the administration of human PTH (1-84) and at the age of 40 weeks after birth, the whole mandibular bone was extracted and the bone densities and bone mineral contents in the whole mandibular bone and the mandibular molar portion were measured by DXA (Aloca).

[3] = OVX rats, 10, 40, 150 μg/kg body weight s.c.
[4] = OVX rats, dose of 150 μg/kg body weight s.c.

Row | Molecule | bone density of the ramal portion ([1]; OVX rats, s.c.) | bone density of the mandibular alveolar bone portion ([1]; OVX rats, 150 μg/kg body weight human PTH (1-84) alone, s.c., 10 weeks, FIG. 1) | bone density of the femur [1, 3] | bone density of the lumbar vertebrae [1, 3] | bone density of the femur [1, 4] | bone density of the lumbar vertebrae [1, 4] | bone density in the mandibular bone (summary) ([1]; ovariectomized aged female rats, summary statement) | bone mineral content of whole mandibular bone ([2]; FIG. 3) | bone mineral content of the mandibular molar portion ([2]; FIG. 4)
1 | C[C@]12CC[C@@H]3c4ccc(O)cc4CC[C@H]3[C@@H]1CC[C@@H]2O [17β-estradiol, estra-1,3,5(10)-trien-3,17β-diol, reference compound] | did not recover | – | – | – | – | – | – | – | –
2 | B1 | did not recover | significant increases over the OVX group and returned to the level for the Sham operation group | increased in a dose-dependent manner | increased in a dose-dependent manner | almost recovered to the level for the Sham operation group | almost recovered to the level for the Sham operation group | a distinct improvement in bone density | increased noticeably | increased noticeably
